From US20230357704A1 (Alliance for Sustainable Energy, LLC, priority 2022, published 2023)
Positions count from the first letter of the chain named. Numbers in names are those of the source.

Legend:
[1] = test system: P. renovo; assay: Formate utilization, HPLC analysis of culture supernatant; assay type: cell-based, Picochlorum renovo; details: for formate consumption: 10 mM sodium formate, evaporative losses taken into account; for formate consumed from the culture media: 25 mM formate, 2% CO2, after 85 hours of cultivation
Procedure: Six μL of filtered cell-free supernatant was used for injection into the Bio-Rad HPX-87H (300×7.8 mm) ion exchange column. Elution of the organic acid was carried out with 0.01 N sulfuric acid at a flow rate of 0.6 mL per min. The column temperature was maintained at 55° C.

[2] = test system: P. renovo; assay: Growth of FDH-expressing P. renovo in media supplemented with formate; assay type: cell-based, Picochlorum renovo; details: for growth in media supplemented with formate: 25 mM formate, 2% CO2, pH 6.0; for growth on sodium formate: up to 75 mM sodium formate, 2% CO2, pH=6 Bis-Tris, 5 mM NH4Cl
Procedure: Cultures were mixed via shaking (170 rpm) at 33° C., 2% CO2, and 125 uE cool white LED lighting.
FDH variants utilized were mutated from the Pseudomonas sp. 101 FDH, specifically NAD+ utilizing variant (A198G) and NADP+ utilizing variant (A198G/D221Q/C255A/H379K/S380V). FDH transformation vectors were prepared by Twist Bioscience, cloning a ribosomal binding site ([…]) and codon optimized FDH downstream of the ptxD selectable marker in our previously described chloroplast transformation vector. P. renovo transformation was carried out as described previously, with the exception that Critter Technology binding and precipitation buffers were used according to the manufacturers recommendations to bind DNA (plasmid prepared by Twist Bioscience) onto the gold microcarriers for biolistic transformation.

B1: NAD+-utilizing FDH variant: Pseudomonas sp. 101 formate dehydrogenase mutant A198G, SEQ ID NO: 30, expressed in P. renovo chloroplast (protein)
chain: MAKVLCVLYDDPVDGYPKTYARDDLPKIDHYPGGQTLPTPKAIDFTPGQLLGSVSGELGLRKYLESNGHTLVVTSDKDGPDSVFERELVDADVVISQPFWPAYLTPERIAKAKNLKLALTAGIGSDHVDLQSAIDRNVTVAEVTYCNSISVAEHVVMMILSLVRNYLPSHEWARKGGWNIADCVSHAYDLEAMHVGTVGAGRIGLAVLRRLAPFDVHLHYTQRHRLPESVEKELNLTWHATREDMYPVCDVVTLNAPLHPETEHMINDETLKLFKRGAYIVNTARGKLCDRDAVARALESGRLAGYAGDVWFPQPAPKDHPWRTMPYNGMTPHISGTTLTAQARYAAGTREILECFFEGRPIRDEYLIVQGGALAGTGAKVYSKGNATGGSEEAAKFKKAV
modifications: Pseudomonas sp. 101
**Q.** What does the source list for B1?
**A.** formate concentration in culture ([1]; 5 mM formate added (initial 6.2 mM), ambient CO2 (0.04%), after 312 hours, HPLC): 1.7 mM; utilization of the added formate ([1]; 5 mM formate, ambient CO2 (0.04%), 312 hours): 74+/−2%; formate consumption ([1]; 2% CO2, at 85 hours): 77±2%; formate consumption ([1]; 2% CO2, at 132 hours): 88±1%; formate consumed from the culture media [1]: 48±1%; growth when supplemented with formate ([2]; 5 mM formate, ambient CO2 (0.04%), versus no formate supplementation): enhanced growth; optical density relative to wild-type ([2]; 5 mM formate, ambient CO2 (0.04%), versus unsupplemented wild-type): > 3.8 ×; culture density ([2]; 10 mM formate compared to 25 mM formate, 2% CO2): higher culture density; growth in media supplemented with formate [2]: Growth in media supplemented with 25 mM formate was observed

B2: SV26: Candida boidinii FDH (C23S), SEQ ID NO: 14 (protein, listed as Candida boidinii)
chain: MKIVLVLYDAGKHAADEEKLYGSTENKLGIANWLKDQGHELITTSDKEGETSELDKHIPDADIIITTPFHPAYITKERLDKAKNLKLVVVAGVGSDHIDLDYINQTGKKISVLEVTGSNVVSVAEHVVMTMLVLVRNFVPAHEQIINHDWEVAAIAKDAYDIEGKTIATIGAGRIGYRVLERLLPFNPKELLYYDYQALPKEAEEKVGARRVENIEELVAQADIVTVNAPLHAGTKGLINKELLSKFKKGAWLVNTARGAICVAEDVAAALESGQLRGYGGDVWFPQPAPKDHPWRDMRNKYGAGNAMTPHYSGTTLDAQTRYAEGTKNILESFFTGKFDYRPQDIILLNGEYVTKAYGKHDKK
**Q.** How did the “growth on sodium formate” value [2] turn out when B2 was run?
**A.** Its value is “able to grow”.

B3: SV27: Candida boidinii FDH (C23S/C262A), SEQ ID NO: 16 (protein, listed as Candida boidinii)
chain: B2 chain with C262A
**Q.** With B3 as the molecule, how does the “growth on sodium formate” value [2] read?
**A.** Its value is “able to grow”.

B4: NADP+-utilizing FDH variant: Pseudomonas sp. 101 formate dehydrogenase mutant A198G/D221Q/C255A/H379K/S380V, SEQ ID NO: 32, expressed in P. renovo chloroplast (protein)
chain: MSDPTLAQPHLVEVHTTLETVVTTHNHNHRPSINASGEKKKIVGVFYKGNEYAKLNPNFVGCVEGALGIREWLESQGHQYIVTDDKEGPDSELEKHIPDAHVIISTPFHPAYVTAERIKKAQKLELLLTAGIGSDHVDLKAAAAAGLTVAEVTGSNVVSVAEDELMRILILMRNFLPGYHQAVKGEWNVAGIAHRAYDLEGKTVGTVGAGRIGKLLLQRLKPFNCNLLYFDRLRIDPELEKEIGAKFEEDLDAMLPKCDVIVINTPLTEQTRGLFDKNRIAKCKKGVLIVNNARGAIADTQAIADACSSGHVAGYSGDVWDPQPAPKDHPWRYMPNHAMTPHISGTTIDAQLRYAAGVKDMLDRHFKGEDFPEQNYIVKEGQLASQYR
modifications: Pseudomonas sp. 101
**Q.** What does the source list for B4?
**A.** formate consumed from the culture media [1]: no formate utilization; growth in media supplemented with formate [2]: no growth; growth in media supplemented with formate ([2]; listed as NADP+ utilizing FDH variant): did not grow
